Measurements as given in US20160083466A1 (Regeneron, published 2016).

T1: human IL-25 expressed with a C-terminal myc-myc-hexahistidine tag (human)
T1 construct: also called human IL-25-MMH; hIL-25-MMH
T1 chain: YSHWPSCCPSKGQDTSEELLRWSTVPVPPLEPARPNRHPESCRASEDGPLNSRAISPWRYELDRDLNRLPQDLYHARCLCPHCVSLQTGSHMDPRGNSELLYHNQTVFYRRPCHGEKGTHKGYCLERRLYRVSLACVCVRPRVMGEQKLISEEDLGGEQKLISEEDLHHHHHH

T2: monkey IL-25 expressed with a C-terminal myc-myc-hexahistidine tag (M. fascicularis (cynomolgus monkey))
T2 construct: also called monkey IL-25-MMH; MfIL-25-MMH
T2 chain: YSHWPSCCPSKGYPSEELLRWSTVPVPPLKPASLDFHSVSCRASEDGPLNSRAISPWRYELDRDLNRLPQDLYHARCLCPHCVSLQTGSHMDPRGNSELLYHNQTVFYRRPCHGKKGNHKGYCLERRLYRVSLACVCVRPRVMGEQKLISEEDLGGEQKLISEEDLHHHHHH

T3: mouse IL-25 expressed with a C-terminal myc-myc-hexahistidine tag (mouse)
T3 construct: also called Mouse IL-25-MMH; mIL-25-MMH
T3 chain: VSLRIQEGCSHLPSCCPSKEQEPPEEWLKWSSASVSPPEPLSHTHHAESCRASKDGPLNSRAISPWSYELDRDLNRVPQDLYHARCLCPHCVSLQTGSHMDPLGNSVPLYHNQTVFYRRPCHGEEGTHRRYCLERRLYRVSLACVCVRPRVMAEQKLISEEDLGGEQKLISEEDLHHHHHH

T4: rat IL-25 expressed with a C-terminal myc-myc-hexahistidine tag (rat)
T4 construct: also called Rat IL-25-MMH
T4 chain: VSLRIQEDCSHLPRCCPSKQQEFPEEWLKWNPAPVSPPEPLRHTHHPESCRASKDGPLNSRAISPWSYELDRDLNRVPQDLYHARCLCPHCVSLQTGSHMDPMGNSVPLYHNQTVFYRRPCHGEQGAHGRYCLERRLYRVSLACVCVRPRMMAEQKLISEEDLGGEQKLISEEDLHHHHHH

T5: human IL-25 expressed with a C-terminal myc-myc-hexahistidine tag (human)
T5 construct: also called hIL-25-MMH; Human IL-25-MMH
T5 chain: T1 chain

B1: H2M10690N (antibody, V domains shown)
VH: QVQLVQSGAEVKKPGASVKVSCKASGYTFTSYGISWVRQAPGQGLEWMGWISAYNGNTNYAQKLQGRVTMTTDTSTSTAYMELRSLRSDDTAVYYCARVPITGTTWFDPWGQGTLVTVSS
VL: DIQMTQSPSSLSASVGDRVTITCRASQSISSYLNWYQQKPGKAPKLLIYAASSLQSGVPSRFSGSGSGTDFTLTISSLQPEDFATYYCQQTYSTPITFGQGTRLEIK
notes: also called H2aM10690N
B2: H4H10897P (antibody, human IgG4, V domains shown)
VH: QVQLQESGPGLVKPSETLSLTCTVSGGSISDYYWSWIRQPPGKGLEWIGHIYYSGSTNHNPSLKSRVAISVDTSKNQFSLRLYSVTAADTAVYYCARDGYSSSSGFYYFGMDVWGQGTTVTVSS
VL: DIQLTQSPSFLSASVGDRVTITCWASQDINSYLAWYQQKPGKAPKLLIFAASTLQGGVPSRFSGSGSGTEFTLTISSLQPEDFATYYCQHLSSFPPTFGQGTRLEIK
B3: H4H10907P (antibody, human IgG4, V domains shown)
VH: EVQLVESGGGLVQPGGSLRLSCAASGFTFSNYDIHWVRQVPGKGLEWISTIGSAGDTFYPGSVKGRFTISRENAKNSLYLQMNSLRAGDSAVYYCARGDNWNYVSWFFDLWGRGTLVTVSS
VL: DIQLTQSPSFLSTSVGDRVTITCWASQDISSFLAWYQQKPGKAPKLLIYAASVLQSGVPSRFSGSGSGTEFTLTISSLQPEDFATYYCQQVNSYPITFGQGTRLEIK
B4: H2aM10690N (antibody, V domains shown)
VH: B1 VH
VL: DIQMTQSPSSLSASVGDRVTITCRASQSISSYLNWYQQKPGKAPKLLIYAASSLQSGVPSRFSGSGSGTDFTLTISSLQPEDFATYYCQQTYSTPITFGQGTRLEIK
notes: also called H2M10690N
B5: H1M11009N (antibody, mouse IgG1, V domains shown)
VH: EVQLVESGGGLVEPGGSLRLSCVASGFTFSNAWMNWVRQAPGKGLEWVGHIERKTDGGTTDFAAPVKGRFTISRDDSKNTLYLQMNSLKTEDTAVYYCTTVGPYSVPFDYWGQGTLVTVSS
VL: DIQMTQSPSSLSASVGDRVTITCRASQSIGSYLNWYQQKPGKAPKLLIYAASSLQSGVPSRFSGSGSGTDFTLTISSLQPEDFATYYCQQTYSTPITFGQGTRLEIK
notes: H1M prefix = mouse IgG1 Fc

Biological target: T1, human IL-25 expressed with a C-terminal …
Assay: SPR Biacore, captured mAb, 25°C;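 as to 100 nM Human IL-25-MMH Bound (RU): biacore 4000 SPR with IL-25-MMH as analyte over purified anti-IL-25 antibodies, association and dissociation rates derived from fitting sensorgrams to a 1:1 binding model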;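 as to 100 nM Monkey IL-25-MMH Bound (RU): Real-time surface plasmon resonance on a Biacore 4000, with IL-25-MMH binding to purified anti-IL-25 antibodies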

Point of comparison: B2, “100 nM Human IL-25-MMH Bound (RU)” value 39 RU. Against it:
- B1 — lower, 32 RU
- B3 — higher, 40 RU

Point of comparison: B2, Kd 0.126 nM. Against it:
- B1 — 290-fold higher, 36.2 nM
- B3 — within 1.5-fold, 0.0883 nM

Point of comparison: B2, koff 7.87e-05 s⁻¹. Against it:
- B1 — 37-fold higher, 0.0029 s⁻¹
- B3 — within 1.5-fold, 6.5e-05 s⁻¹

Point of comparison: B1, kon 80200 M⁻¹ s⁻¹. Against it:
- B2 — 7.8-fold higher, 623000 M⁻¹ s⁻¹
- B3 — 9.2-fold higher, 736000 M⁻¹ s⁻¹

Point of comparison: B2, t½ 147 min. Against it:
- B1 — 37-fold lower, 4 min
- B3 — within 1.5-fold, 178 min

Biological target: T1, human IL-25 expressed with a C-terminal …
Assay: SPR Biacore, captured mAb, 37°C
Procedure: (§1) Equilibrium dissociation constants (KD values) for IL-25 binding to purified anti-IL-25 antibodies were determined using a real-time surface plasmon resonance biosensor assay on a Biacore 4000 instrument (GE Healthcare). […] All the IL-25 reagents were expressed with a C-terminal myc-myc-hexahistidine tag (referred to herein as “IL-25-MMH”). […] Kinetic association (kₐ) and dissociation (kd) rate constants were determined by fitting the real-time sensorgrams to a 1:1 binding model using Scrubber 2.0c curve fitting software.

Point of comparison: B2, “100 nM Human IL-25-MMH Bound (RU)” value 48 RU. Against it:
- B1 — lower, 39 RU
- B3 — lower, 47 RU

Point of comparison: B1, Kd 61.4 nM. Against it:
- B2 — 280-fold lower, 0.218 nM
- B3 — 1600-fold lower, 0.0375 nM

Point of comparison: B3, koff 4.45e-05 s⁻¹. Against it:
- B1 — 190-fold higher, 0.00844 s⁻¹
- B2 — 5.1-fold higher, 0.000226 s⁻¹

Point of comparison: B1, kon 137000 M⁻¹ s⁻¹. Against it:
- B2 — 7.6-fold higher, 1.04e+06 M⁻¹ s⁻¹
- B3 — 8.7-fold higher, 1.19e+06 M⁻¹ s⁻¹

Point of comparison: B2, t½ 51 min. Against it:
- B1 — 36-fold lower, 1.4 min
- B3 — 5.1-fold higher, 259 min

Biological target: T2, monkey IL-25 expressed with a …
Assay: SPR Biacore, captured mAb, 25°C;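 as to 100 nM Human IL-25-MMH Bound (RU): biacore 4000 SPR with IL-25-MMH as analyte over purified anti-IL-25 antibodies, association and dissociation rates derived from fitting sensorgrams to a 1:1 binding model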;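 as to 100 nM Monkey IL-25-MMH Bound (RU): Real-time surface plasmon resonance on a Biacore 4000, with IL-25-MMH binding to purified anti-IL-25 antibodies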
Procedure: as §1

Point of comparison: B3, “100 nM Monkey IL-25-MMH Bound (RU)” value 43 RU. Against it:
- B2 — lower, 42 RU

Point of comparison: B2, Kd 0.0749 nM. Against it:
- B3 — 1.5-fold lower, 0.0485 nM

Point of comparison: B3, koff 6.74e-05 s⁻¹. Against it:
- B2 — within 1.5-fold, 8.43e-05 s⁻¹

Point of comparison: B2, kon 1.13e+06 M⁻¹ s⁻¹. Against it:
- B3 — within 1.5-fold, 1.39e+06 M⁻¹ s⁻¹

Point of comparison: B2, t½ 137 min. Against it:
- B3 — within 1.5-fold, 171 min

Biological target: T3, mouse IL-25 expressed with a C-terminal …
Assay: SPR Biacore, antibody captured, 25C;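 as to 100 nM Rat IL-25-MMH Bound (RU): purified anti-IL-25 antibodies were tested by real-time surface plasmon resonance on a Biacore 4000, with rate constants obtained from sensorgram fits to a 1:1 binding model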

Point of comparison: B5, “100 nM Mouse IL-25-MMH Bound (RU)” value 0 RU. Against it:
- B4 — higher, 17 RU

With B4 the Kd was 82.3 nM.

For B4, the koff was 0.00319 s⁻¹.

B4 gave a kon of 38800 M⁻¹ s⁻¹.

B4 gave a t½ of 4 min.

B5: no binding (tested: 100 nM).

Biological target: T3, mouse IL-25 expressed with a C-terminal …
Assay: SPR Biacore, antibody captured, 37C;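 as to 100 nM Mouse IL-25-MMH Bound (RU): Real-time sensorgrams of IL-25-MMH binding to purified anti-IL-25 antibodies, rate constants obtained by fitting a 1:1 binding model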
Procedure: as §1

Point of comparison: B4, “100 nM Mouse IL-25-MMH Bound (RU)” value 27 RU. Against it:
- B5 — lower, 2 RU

For B4, the Kd was 81.7 nM.

B4 was tested, and the koff was 0.00778 s⁻¹.

With B4 the kon was 95300 M⁻¹ s⁻¹.

B4 showed a t½ of 1.5 min.

Biological target: T4, rat IL-25 expressed with a C-terminal …
Assay: SPR Biacore, antibody captured, 25C;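 as to 100 nM Rat IL-25-MMH Bound (RU): purified anti-IL-25 antibodies were tested by real-time surface plasmon resonance on a Biacore 4000, with rate constants obtained from sensorgram fits to a 1:1 binding model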
Procedure: as §1

Point of comparison: B4, “100 nM Rat IL-25-MMH Bound (RU)” value 18 RU. Against it:
- B5 — lower, -1 RU

B4 showed a Kd of 103 nM.

For B4, the koff was 0.0095 s⁻¹.

Binder B4 has a kon of 91800 M⁻¹ s⁻¹.

B4 showed a t½ of 1.2 min.

Biological target: T4, rat IL-25 expressed with a C-terminal …
Assay: SPR Biacore, antibody captured, 37C;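 as to 100 nM Mouse IL-25-MMH Bound (RU): Real-time sensorgrams of IL-25-MMH binding to purified anti-IL-25 antibodies, rate constants obtained by fitting a 1:1 binding model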

Point of comparison: B5, “100 nM Rat IL-25-MMH Bound (RU)” value 3 RU. Against it:
- B4 — higher, 20 RU

Work on B4 yielded a Kd of 115 nM.

For B4, the koff was 0.0193 s⁻¹.

B4 showed a kon of 168000 M⁻¹ s⁻¹.

With B4 the t½ was 0.6 min.

Biological target: T5, human IL-25 expressed with a C-terminal …
Assay: BLI Octet, hIL-25-MMH captured on anti-Penta-His sensor, 25C
Procedure: Binding competition between anti-IL-25 monoclonal antibodies was determined using a real time, label-free bio-layer interferometry assay on an Octet QK384 biosensor (Pall ForteBio Corp.).
The biosensors were washed in HBST kinetics buffer in between every step of the experiment. The real-time binding response was monitored during the course of the experiment and the binding response at the end of every step was recorded.

Point of comparison: B4, “50 ug/mL mAb-1 Binding (nm)” value 1.38 nm. Against it:
- B5 — higher, 1.42 nm

Biological target: T5, human IL-25 expressed with a C-terminal …
Assay: competition ELISA, 2 nM hIL-25-MMH binding to coated hIL-17RB-hFc
Procedure: Data analysis was performed using a sigmoidal dose-response model within Prism™ software (GraphPad). […] The absorbance values of the wells containing the highest concentration for each antibody were used to determine the percent maximum blockade.

With B4 the “% Maximum blocking of 200 nM antibody” value was 70%.

Work on B4 yielded an IC50 of 31 nM.
